According to patent US20240277762A1 (published 2024):

Assays:
[1] = target: T1, PRAME peptide on HLA-A*02:04 (human); assay: cytokine release
T1 peptide: SLLQHLIGL

[2] = target: T2, PRAME peptide on HLA-A*02:09 (human); assay: cytokine release
T2 peptide: SLLQHLIGL

[3] = target: T3, PRAME peptide on HLA-A*02:02 (human); assay: cytokine release
T3 peptide: SLLQHLIGL

[4] = target: T4, PRAME peptide on HLA-A*02:01 (human); assay: killing
T4 peptide: SLLQHLIGL

Measured: binding result

B1: T23.8-2.1-027-004 (TCR, V domains shown)
Valpha: GQQLNQSPQSMFIQEGEDVSMNCTSSSIFNTWLWYKQDPGEGPVLLIALYKAGELTSNGRLTAQFGITRKDSFLNISASIPSDVGIYFCAGLADYGGSQGNLIFGKGTKLSVKP
Vbeta: DSGVTQTPKHLITATGQRVTLRCSPRSGDLSVYWYQQSLDQGLQFLIQYYNGEERAKGNILERFSAQQFPDLHSELNLSSLELGDSALYFCASSVWASGGYEQYFGPGTRLTVT
recognises: all assays above
